Experimental findings from article doi:10.1101/2021.06.07.447473 are described below.

In this test the target is eIF2B(αβδγε)2 decamer, eIF2Bβ Avi-tagged and biotinylated (human) (UniProt Q14232). In words: SPR. For orientation: SPR reads the build-up and loss of mass on a sensor chip optically.

As to “Sandfly Fever Sicilian virus (SFSV) NSs protein with C-terminal 6xHIS tag (NSs::6xHIS) (natural protein)”, the Kd (usually the constant that tells how readily two partners part at equilibrium) came to 43 nM.
